Reference: US20160347801A1 (NATIONAL CANCER CENTER, published 2016)
One block for each molecule: values may come before it. Where no end group is shown, it is not given here. [ ]: non-standard residue; d: D form. pT = C[C@@H](OP(=O)(O)O)[C@H](N)C(=O)O

What was measured:
human PLK1-PBD (371-594) [1] = molecular target: T1, human PLK1-PBD (371-594) (human, UniProt P53350 371-594); assay: fluorescence polarization, FITC peptide 10 nM, PBD 0 to 4 µM
T1 construct: range 371-594; Made in E. coli as a GST fusion (pGEX6p-1); also called PBD of PLK1; purified PBD

human PLK2-PBD (451-685) = molecular target: T2, human PLK2-PBD (451-685) (human, UniProt Q9NYY3 451-685); assay: fluorescence polarization, FITC peptide 10 nM
T2 construct: range 451-685; GST fusion from pGEX6p-1, GST cleaved by 3C protease
T2 sequence (looked up): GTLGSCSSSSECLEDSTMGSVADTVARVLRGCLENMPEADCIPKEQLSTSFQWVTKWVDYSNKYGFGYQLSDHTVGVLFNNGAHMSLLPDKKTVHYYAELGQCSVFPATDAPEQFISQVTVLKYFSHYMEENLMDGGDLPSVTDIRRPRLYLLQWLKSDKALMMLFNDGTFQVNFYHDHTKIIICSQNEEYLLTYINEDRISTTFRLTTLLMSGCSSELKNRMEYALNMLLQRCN
Method: (§1) The final protein concentrations ranged from 0 to 4 uM, and the final peptide concentration was 10 nM. Fluorescence polarization was analyzed 30 min after mixing the peptide and proteins in a 96-well plate using an INFINTE 200 PRO (Tecan). Binding curves were fitted using the GraphPad Prism software.

human PLK3-PBD (412-646) = molecular target: T3, human PLK3-PBD (412-646) (human, UniProt Q9H4B4 412-646); assay: fluorescence polarization, FITC peptide 10 nM
T3 construct: range 412-646; GST fusion from pGEX6p-1, GST cleaved by 3C protease
T3 sequence (looked up): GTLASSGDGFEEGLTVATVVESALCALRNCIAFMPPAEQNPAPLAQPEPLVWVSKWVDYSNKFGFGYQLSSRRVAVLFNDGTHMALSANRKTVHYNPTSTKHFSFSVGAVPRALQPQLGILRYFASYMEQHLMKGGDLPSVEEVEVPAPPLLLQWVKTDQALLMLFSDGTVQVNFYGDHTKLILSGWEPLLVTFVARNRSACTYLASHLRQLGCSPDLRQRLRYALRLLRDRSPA
Method: as §1

[2] = molecular target: T4, NCAPG2 (detected by immunoblotting in Flag-PLK1 immunoprecipitates) (human, UniProt Q86XI2 1-1143, limits assumed); assay: Flag-bead pull-down, NCAPG2 immunoblot
T4 construct: Apparently the cells' own NCAPG2
T4 sequence: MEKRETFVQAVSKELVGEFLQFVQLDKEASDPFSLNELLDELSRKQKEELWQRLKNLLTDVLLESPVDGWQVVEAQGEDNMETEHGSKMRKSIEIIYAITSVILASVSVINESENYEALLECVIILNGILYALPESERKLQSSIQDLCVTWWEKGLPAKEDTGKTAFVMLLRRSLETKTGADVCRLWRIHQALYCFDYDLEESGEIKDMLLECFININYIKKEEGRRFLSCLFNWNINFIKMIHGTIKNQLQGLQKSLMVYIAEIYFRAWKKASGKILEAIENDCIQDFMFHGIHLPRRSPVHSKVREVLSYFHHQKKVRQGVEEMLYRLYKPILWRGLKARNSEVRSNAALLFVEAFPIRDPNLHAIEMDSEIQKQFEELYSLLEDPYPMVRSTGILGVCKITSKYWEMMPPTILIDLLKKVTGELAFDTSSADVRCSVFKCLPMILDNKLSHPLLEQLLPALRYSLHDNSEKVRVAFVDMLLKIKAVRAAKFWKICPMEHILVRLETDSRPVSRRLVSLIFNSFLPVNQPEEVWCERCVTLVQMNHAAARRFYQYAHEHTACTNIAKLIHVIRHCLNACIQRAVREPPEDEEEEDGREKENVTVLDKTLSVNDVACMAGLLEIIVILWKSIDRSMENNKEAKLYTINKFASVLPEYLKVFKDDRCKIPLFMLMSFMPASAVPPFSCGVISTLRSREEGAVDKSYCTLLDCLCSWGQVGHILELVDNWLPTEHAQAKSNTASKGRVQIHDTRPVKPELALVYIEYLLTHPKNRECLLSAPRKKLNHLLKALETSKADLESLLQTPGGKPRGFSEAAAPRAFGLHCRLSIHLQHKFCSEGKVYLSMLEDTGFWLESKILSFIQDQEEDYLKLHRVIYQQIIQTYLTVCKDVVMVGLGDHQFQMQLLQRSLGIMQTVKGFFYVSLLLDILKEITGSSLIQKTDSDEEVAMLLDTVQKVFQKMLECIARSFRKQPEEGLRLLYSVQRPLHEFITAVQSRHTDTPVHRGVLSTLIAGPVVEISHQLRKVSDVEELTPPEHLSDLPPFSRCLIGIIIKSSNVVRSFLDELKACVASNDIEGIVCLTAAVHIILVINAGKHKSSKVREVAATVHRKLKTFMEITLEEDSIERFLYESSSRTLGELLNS
Method: The primary antibodies were purchased from commercial sources as follows: Histon H3 pS10 (Abcam, Cambridge, UK), NCAPG2 (Novus Biological, 1/1000), PLK1 (Novus Biological, 1/1000), BubR1 (BD Biosciences, 1/1000), β-actin (Sigma-Aldrich, 1/5000), and CREST (ImmunoVision, 1/1000). BubR1 676 antibodies (1/10000) were prepared as previously reported (Elowe, S., et al. Tension-sensitive Plk1 phosphorylation on BubR1 regulates the stability of kinetochore microtubule interactions. Genes Dev 21, 2205-19 (2007)). The precipitates were washed with TAP buffer three times at 4° C., re-suspended in 20 μl of 2X Sample buffer (125 mM Tris (pH 6.8), 200 mM DTT, 4% SDS, 20% Glycerol, 0.004% Bromophenol Blue) and proteins were denatured at 100° C. for 5 min.
For the detection of proteins using the immunoblottings, subjects were protein complexes from immunoprecipitation or whole cell lysates harvested from indicated conditions. Whole cells were harvested with lysis buffer (20 mM Tris, 5 mM EDTA, 10 mM Na₄P₂O₇, 100 mM NaF, 2 mM Na₃VO₄, 1% Np-40, 0.2% Protease Inhibitor Cocktail, and 1 mM PMSF) and centrifuged at 10,000 rpm, 4° C., 10 min. Protein concentration was determined using BCA™ protein assay kit (Pierce, Rockford, USA). […]

human PLK1-PBD (371-594) [3] = molecular target: T1, human PLK1-PBD (371-594); assay: fluorescence polarization, FITC peptide 10 nM
Method: as §1

T1 sequence (P53350 371-594 limits assumed): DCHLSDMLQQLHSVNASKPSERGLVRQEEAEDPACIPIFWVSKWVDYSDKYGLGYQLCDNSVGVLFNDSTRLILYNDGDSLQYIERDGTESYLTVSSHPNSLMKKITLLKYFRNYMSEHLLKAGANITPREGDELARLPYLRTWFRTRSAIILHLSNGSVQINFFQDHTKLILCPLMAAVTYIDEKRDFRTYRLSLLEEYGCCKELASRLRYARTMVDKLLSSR

Kd (human PLK1-PBD (371-594) [1]): 69.9 nM
Molecule: FITC-labelled 1010pT peptide (GVLSpTLI)

binding result (human PLK2-PBD (451-685)): no binding (tested: protein 0 to 4 uM) | binding result (human PLK3-PBD (412-646)): no binding (tested: protein 0 to 4 uM)
B1: FITC-labelled 1010pT peptide (GVLSpTLI) (peptide)
peptide: GVLS[pT]LI
modifications: also: FITC label, site not given here
notes: this peptide carries pThr at the fifth position; also called phosphorylated 7-mer peptide 1006GVLS-pT-LI1012

binding result [2]: no binding
B2: Flag-Plk1^FAA (other, UniProt P53350 1-603, looked up)
chain: MSAAVTAGKLARAPADPGKAGVPGVAAPGAPAAAPPAKEIPEVLVDPRSRRRYVRGRFLGKGGFAKCFEISDADTKEVFAGKIVPKSLLLKPHQREKMSMEISIHRSLAHQHVVGFHGFFEDNDFVFVVLELCRRRSLLELHKRRKALTEPEARYYLRQIVLGCQYLHRNRVIHRDLKLGNLFLNEDLEVKIGDFGLATKVEYDGERKKTLCGTPNYIAPEVLSKKGHSFEVDVWSIGCIMYTLLVGKPPFETSCLKETYLRIKKNEYSIPKHINPVAASLIQKMLQTDPTARPTINELLNDEFFTSGYIPARLPITCLTIPPRFSIAPSSLDPSNRKPLTVLNKGLENPLPERPREKEEPVVRETGEVVDCHLSDMLQQLHSVNASKPSERGLVRQEEAEDPACIPIFWVSKFVDYSDKYGLGYQLCDNSVGVLFNDSTRLILYNDGDSLQYIERDGTESYLTVSSHPNSLMKKITLLKYFRNYMSEHLLKAGANITPREGDELARLPYLRTWFRTRSAIILHLSNGSVQINFFQDATALILCPLMAAVTYIDEKRDFRTYRLSLLEEYGCCKELASRLRYARTMVDKLLSSRSASNRLKAS
notes: also called FAA mutant; substrate non recognizable FAA mutant; not shown: Flag tag

binding result (human PLK1-PBD (371-594) [3]): no binding (tested: protein 0 to 4 uM)
Molecule: GVLSDLI (also: FITC label, site not given here) [FITC-labeled 1010D peptide (GVLSDLI)]

binding result (human PLK1-PBD (371-594) [3]): no binding (tested: protein 0 to 4 uM)
Molecule: GVLSELI (also: FITC label, site not given here) [FITC-labeled 1010E peptide (GVLSELI)]
